According to article PMC4081072, “Structure and semi-sequence-specific RNA binding of Nrd1”:

Assays:
Assay in all cases: fluorescence anisotropy; FA: 10 nM RNA, 50 mM sodium phosphate pH 8, 150 mM NaCl, 10 mM beta-mercaptoethanol, 20 C (protein stock in 300 mM NaCl); NMR: same buffer with 300 mM NaCl, 20
Conditions in all cases: protein: recombinant; tags: C-terminal His6; label: 5' fluorescein or TAMRA (FA); unlabeled (NMR)
[1] = target: T1, Nrd1 307-491 H385A (Saccharomyces cerevisiae, UniProt P53617 307-491, H385A)
T1 sequence: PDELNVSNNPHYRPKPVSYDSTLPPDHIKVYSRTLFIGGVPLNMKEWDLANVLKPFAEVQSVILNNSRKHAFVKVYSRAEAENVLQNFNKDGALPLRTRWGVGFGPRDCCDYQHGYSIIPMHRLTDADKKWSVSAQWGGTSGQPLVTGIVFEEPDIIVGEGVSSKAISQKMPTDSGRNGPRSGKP

[2] = target: T2, Nrd1 307-491 G344A (Saccharomyces cerevisiae, UniProt P53617 307-491, G344A)
T2 sequence: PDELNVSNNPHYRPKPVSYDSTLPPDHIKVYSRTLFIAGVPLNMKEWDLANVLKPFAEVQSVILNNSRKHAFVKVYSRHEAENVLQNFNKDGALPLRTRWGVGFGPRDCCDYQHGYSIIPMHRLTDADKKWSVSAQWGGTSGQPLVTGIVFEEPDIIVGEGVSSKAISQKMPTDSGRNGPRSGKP

[3] = target: T3, Nrd1 307-491 H376A (Saccharomyces cerevisiae, UniProt P53617 307-491, H376A)
T3 sequence: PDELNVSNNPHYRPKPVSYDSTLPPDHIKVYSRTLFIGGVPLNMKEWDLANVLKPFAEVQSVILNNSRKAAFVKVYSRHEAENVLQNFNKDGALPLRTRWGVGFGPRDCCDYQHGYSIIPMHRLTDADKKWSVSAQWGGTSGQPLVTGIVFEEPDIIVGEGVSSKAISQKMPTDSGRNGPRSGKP

[4] = target: T4, Nrd1 307-491 K435D (Saccharomyces cerevisiae, UniProt P53617 307-491, K435D)
T4 sequence: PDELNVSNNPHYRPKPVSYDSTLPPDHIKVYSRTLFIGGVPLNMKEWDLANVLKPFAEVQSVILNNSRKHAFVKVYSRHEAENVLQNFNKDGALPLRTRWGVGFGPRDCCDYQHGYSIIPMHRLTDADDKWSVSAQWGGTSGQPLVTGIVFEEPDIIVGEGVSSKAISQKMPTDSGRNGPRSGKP

[5] = target: T5, Nrd1 307-491 R429D (Saccharomyces cerevisiae, UniProt P53617 307-491, R429D)
T5 sequence: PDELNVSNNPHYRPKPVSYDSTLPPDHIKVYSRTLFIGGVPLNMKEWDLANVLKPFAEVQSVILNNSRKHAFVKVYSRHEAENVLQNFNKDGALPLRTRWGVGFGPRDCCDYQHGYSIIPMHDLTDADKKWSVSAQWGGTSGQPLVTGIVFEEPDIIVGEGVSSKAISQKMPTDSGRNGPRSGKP

[6] = target: T6, Nrd1 307-491 WT (Saccharomyces cerevisiae, UniProt P53617 307-491)
T6 sequence: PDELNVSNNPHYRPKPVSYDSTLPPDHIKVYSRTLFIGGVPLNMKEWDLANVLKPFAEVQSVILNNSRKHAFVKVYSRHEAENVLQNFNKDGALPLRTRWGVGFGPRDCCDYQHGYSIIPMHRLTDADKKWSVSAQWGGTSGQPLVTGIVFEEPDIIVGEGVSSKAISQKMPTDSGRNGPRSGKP

[7] = target: T7, Nrd1 307-491 G407A (Saccharomyces cerevisiae, UniProt P53617 307-491, G407A)
T7 sequence: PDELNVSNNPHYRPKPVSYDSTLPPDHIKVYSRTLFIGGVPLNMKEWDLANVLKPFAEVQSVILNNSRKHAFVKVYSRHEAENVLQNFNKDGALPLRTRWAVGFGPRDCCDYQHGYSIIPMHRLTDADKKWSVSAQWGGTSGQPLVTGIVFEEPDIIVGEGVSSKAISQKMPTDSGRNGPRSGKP

[8] = target: T8, Nrd1 307-491 D417A (Saccharomyces cerevisiae, UniProt P53617 307-491, D417A)
T8 sequence: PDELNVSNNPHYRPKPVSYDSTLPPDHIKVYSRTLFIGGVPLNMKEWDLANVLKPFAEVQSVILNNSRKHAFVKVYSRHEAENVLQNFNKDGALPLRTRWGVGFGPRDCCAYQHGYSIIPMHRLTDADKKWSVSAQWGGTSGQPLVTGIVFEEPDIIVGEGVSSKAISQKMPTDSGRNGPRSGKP

Binder: GUAA (ssRNA)
- Kd [1]: 10.3 ± 1.7 µM
- Kd [2]: 80.8 ± 2.2 µM
- Kd [3]: 59.1 ± 2.6 µM
- Kd [4]: 16.2 ± 1.7 µM
- Kd [5]: 24.1 ± 1.7 µM
- Kd [6]: 10.1 ± 0.8 µM
- Kd [7]: 13.9 ± 1.7 µM
- Kd [8]: 17.9 ± 2 µM
